{"source": "paper PMC4352251", "about": "“The VieB auxiliary protein negatively regulates the VieSA signal transduction system in Vibrio cholerae” (BMC Microbiology, 2015)", "key": {"[1]": {"biological_target": "VieS-C (untagged cytoplasmic portion of the sensor kinase VieS) (UniProt O68317)", "assay": "SEC-MALS; Superose12 10/300 GL in Gel Filtration Buffer (25 mM Tris pH 7.5, 100 mM KCl, 1 mM DTT, 5% glycerol); column at 4°C, light scattering at 25°C; self-association of each protein"}, "[2]": {"biological_target": "VieS-C (untagged cytoplasmic portion of the sensor kinase VieS) (UniProt O68317)", "assay": "composition-gradient MALS (CG-MALS)"}, "[3]": {"biological_target": "the molecule itself", "assay": "SEC-MALS; Superose12 10/300 GL in Gel Filtration Buffer (25 mM Tris pH 7.5, 100 mM KCl, 1 mM DTT, 5% glycerol); column at 4°C, light scattering at 25°C; self-association of each protein"}}, "data": [{"molecule": "VieS-C (untagged cytoplasmic portion of the sensor kinase VieS) (from UniProt O68317 1-1146) (domain or fragment)", "values": [{"measurement": "stoichiometry N", "setting": "[1]", "result": 2}]}, {"molecule": "VieA-His6 (response regulator VieA) (natural protein, not shown: His6, C-terminal, kept) MKIMIVEDDRIQATSLKLKLRQLGLDDVILAENGFAALELCNKVGIDLMFCDIRMPQMDGISLLSQLSLQAPKLGVVILSAVEDTILELTHNMCSLAGFAYVDRLPKPYEVEDLQRVVEGFQKQTEPETSHKPAITLTCDEIEQAFLHDHIFNYYQPQFDFRSGAMVGVEALVRYEHPTHGMLSPAVFLPLIEQCGLHEKLFLTVLEKSVSALASIGADLQLSVNISQRNLQHSICDPILAICERYGFPASKLTLEMTEHEVYNGTPTSLANLARLRMYGVGLSIDDFGTGYASLGQLAQLPFTELKIDRSFVHDLATNYKHQQLTNMCLLLAQSLGLHCVVEGVENEETWQYLRQLGVDTCQGYYAAKPMPIAQLSELYTKNRRQCLGCQSMDDGWQILLVDNHMLSATALQKVLNKEENVSKVFVAQDIEQTLHKLRDLPINLLVVESRFLSTISPAAFHELLEPYYRGALLVLHDGLTAEAQEDEPKAIVVKANTLMETSSRILLQAQQSNVRPQAQQEELAQLSERELTVAKMLVEGLTNKEIALQLDINQKTVSTYKTRIMTKLGIKSAMELVRFVTLK", "values": [{"measurement": "Kd", "setting": "[2]", "result": 1380, "unit": "nM"}, {"measurement": "stoichiometry N (VieA-His6 dimer per VieS-C dimer)", "setting": "[2]", "result": 1}, {"measurement": "stoichiometry N", "setting": "[3]", "result": 2}]}, {"molecule": "VieB (wild type, His6 tag removed) (natural protein) MAVPTFAELKVLIIDDAPIVIASLRSMLLKLGFTDPNIVWSKSPRAAVFMAGRQRFDIFICDYNFGKGLNGKQVFEELKHYKLIKQDAVFVLVTGENSAYVVHSILELKPDEYILKPFNIMTLQERLTNAISRKHALKALYQAERDGDAELGLSLCDELEPFYNDYYFVIQKFRGEFLTQLRRFDHAREVYLETLEHKDFDWAKIGLANALKQTGRQVEATQVIQELLASAPNNVRARVEAASISLCNNSIPEAIHHLQVANQIVPGHSEREWVLANLCLSVGDGASALERYRLYVEINKETYRNNHQMHLNFIRTLLYAARQAESEQRDLWVQEAKSILKGLYDKGQHEDLLAQLELVAAHLAMEEGEFGVSVEILNKIYRAKPFELFEDRYHFTWLLNVMGFDSEFAKCISWCNGTLLNQETDIVLESKVALAKALKEANQEKLQWLEQRYHALCNKQQTIDSLLAIYIEILEKCPTLRTVCMKVVTIFSRYWPTALTESEAERLLKSCHRTIRQLMNEEELQQAQYAELYRKALTFRSRYRLQRTESVEA", "values": [{"measurement": "Kd", "setting": "[2]", "result": 467, "unit": "nM"}, {"measurement": "stoichiometry N (VieB monomer per VieS-C dimer)", "setting": "[2]", "result": 1}]}]}
